Measurements taken from paper PMC8887132.

T1: YTHDC2 YTH domain WT (Mus musculus, UniProt B2RR83 1353-1436)
T1 sequence: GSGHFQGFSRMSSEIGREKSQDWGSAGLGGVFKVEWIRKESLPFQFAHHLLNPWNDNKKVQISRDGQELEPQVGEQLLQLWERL

B1: unmodified RNA probe (ssRNA)
RNA: CCGGACUGU
B2: m6A-modified RNA probe (ssRNA)
RNA: CCGGACUGU
modifications: m6A at position 5

Biological target: T1, YTHDC2 YTH domain WT
Experiment: fluorescence anisotropy

Binder | Kd
B1 | 54 ± 26 µM
B2 | 4.1 ± 1.4 µM
